Results: patent publication US11820970B2, “High throughput protein-protein interaction screening in yeast liquid culture” (University of Washington, priority 2016, dated 2023)

Assays:
Test in all cases: Batched (one-pot) yeast mating assay, barcode sequencing
Type in all cases: cell-based
Bfl1 = biological target: T1, Bfl1 (Homo sapiens, UniProt Q16548); settings: vs Bfl1
T1 sequence (Q16548 1-175): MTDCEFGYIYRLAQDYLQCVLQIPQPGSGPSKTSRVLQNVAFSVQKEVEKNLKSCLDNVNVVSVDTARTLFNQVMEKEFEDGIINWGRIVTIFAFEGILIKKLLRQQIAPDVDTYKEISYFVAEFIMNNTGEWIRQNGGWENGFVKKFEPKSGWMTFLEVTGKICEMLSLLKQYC
Protocol: (§1) For a many-to-many (also see Example 6) batched mating assay, multiple haploid yeast strains of each mating type are combined in a fresh 3 mL YPD culture. The recombinant MATa yeast strains are added in equal concentrations for a total density of 100 cells/μL and the recombinant MATalpha yeast strains are added in equal concentrations for a total density of 600 cells/μL. After 6 hours of growth, hygromycin is added at 100 ng/μL and β-estradiol (PE) is added at 200 ng/μL. 20 hours after the initial culture inoculation, 1 mL of cells are pelleted. 2 μL of cells are removed from the pellet, lysed with 0.2% SDS, spun down to remove all cellular debris, and diluted in water. The lysate is then used as a template for a PCR with standard primers containing overhangs for next generation sequencing and the PCR product, expected to be 650 bases, is purified from a gel slice. Paired-end next generation sequencing is then performed. The frequency that a particular pair of barcodes is observed relative to the total number of reads provides a relative measure for the number of matings that were caused by the SAP pair associated with those two particular barcodes.
(§2) LIBRARY MATING ASSAYS: For library mating assays in which each isogenic strain was constructed individually and the barcode associated with each synthetic adhesion protein was determined with Sanger sequencing, one or both of the isogenic haploid strains from a one-to-one mating were replaced with a library of strains, all of the same mating type, displaying unique barcoded synthetic adhesion proteins. Each haploid strain in the library is individually grown to saturation, evaluated for surface expression strength as described previously, and mixed in equal volumes. 2.5 μL, if a MATa library, or 5 μL, if a MATalpha library, were then added to a mating as before. Following a 17 hour incubation, 100 μL were added to 50 mL of YPD with […] hygromycin and 100 nM β-estradiol (many-to-many matings only). After growing to saturation, cells were harvested by centrifugation, and lysed by heating to 70° C. for 5 min in 200 mM LiOAc and 1% SDS. Cellular debris was removed and incubated at 37° C. for 4 hours with 0.05 mg/mL RNase A. An ethanol precipitation was then performed to purify and concentrate the genomic DNA. A primary qPCR is performed to amplify the barcode region with standard adaptors and the PCR product is used as a template for a secondary qPCR to attach an index barcode and standard Illumina adaptors. This fragment is gel extracted, quantified with a Qubit and analyzed on a MiSeq next generation sequencer.
(§3) One-pot protein library characterization. A barcoding and recombination scheme was developed for the analysis of whole protein interaction networks in a single pot. Single MATa and MATα parent strain, yNGYSDa and yNGYSDα, were constructed and barcoded SAP cassettes were transformed into the strains. In addition to the knockout of Sag1 in both parent strains and complementary lysine and leucine markers, yNGYSDa contains a CRE recombinase expression cassette with an inducible promoter, pZ4. yNGYSDα constitutively expresses ZEV4, an activator of the pZ4 promoter with an estradiol binding domain for nuclear localization. SAP cassettes were assembled in one of two standardized vectors, pNGYSDa or pNGYSDα, for integration into the corresponding yeast parent strain. In addition to the surface expression cassette, each vector backbone contains a mating type specific florescent reporter cassette, a randomized ten-nucleotide barcode, a mating type specific primer binding site, and a lox recombination site. Upon mating, the addition of β-Estradiol (βE) induces CRE recombinase expression in diploid cells, consolidating the barcodes from each haploid chromosome so that next-generation sequencing can be used to count the frequency of interacting SAP pairs (FIG. 16A). […]

Bcl2 = Bcl2 (Homo sapiens, UniProt P10415); settings: vs Bcl2
Chain of Bcl2 (P10415 whole entry, species assumed): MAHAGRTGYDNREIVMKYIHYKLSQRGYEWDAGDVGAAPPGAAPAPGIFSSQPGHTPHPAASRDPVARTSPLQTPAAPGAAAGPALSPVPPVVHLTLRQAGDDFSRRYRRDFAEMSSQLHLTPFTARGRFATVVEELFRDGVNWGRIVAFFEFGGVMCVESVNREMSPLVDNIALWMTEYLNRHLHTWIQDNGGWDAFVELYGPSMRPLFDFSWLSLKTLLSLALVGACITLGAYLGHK
Protocol: as §1, §2, §3

BclW = biological target: T2, BclW (Homo sapiens, UniProt Q92843); settings: vs BclW
T2 sequence (Q92843 1-193): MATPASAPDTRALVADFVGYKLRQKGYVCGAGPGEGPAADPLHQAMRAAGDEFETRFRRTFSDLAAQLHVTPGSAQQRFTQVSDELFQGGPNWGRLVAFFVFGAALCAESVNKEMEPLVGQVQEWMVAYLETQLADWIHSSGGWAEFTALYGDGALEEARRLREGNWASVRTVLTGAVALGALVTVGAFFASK
Protocol: as §1, §2, §3

| Substance | binding in batched mating (interaction profile, in words) (Bfl1) | binding in batched mating (interaction profile, in words) (Bcl2) | binding in batched mating (interaction profile, in words) (BclW) |
| --- | --- | --- | --- |
| Noxa: natural BH3 domain peptide binder of Bcl2 family proteins (PAELEVECATQLRRFGDKLNFRQKLL) | high specificity |  |  |
| Bim: natural BH3 domain peptide binder of Bcl2 family proteins | nonspecifically | nonspecifically | nonspecifically |
| Puma: natural BH3 domain peptide binder of Bcl2 family proteins (EEQWAREIGAQLRRMADDLNAQYERR) | nonspecifically | nonspecifically | nonspecifically |
